From patent US20180155451A1 (published 2018)

B1: GpH7-A5/GpH7-B3 variant (T335_04F)/GpL16-k0 (antibody, human IgG1, kappa)
heavy 1: not shown
heavy 2: not shown
light: DIVMTQSPLSLPVTPGEPASISCQASESLVHSNRNTYLHWYLQKPGQSPQLLIYKVSNRFSGVPDRFSGSGSGTDFTLKISRVEAEDVGVYYCSQNTHVPPTFGQGTKVEIERTVAAPSVFIFPPSDEQLKSGTASVVCLLNNFYPREAKVQWKVDNALQSGNSQESVTEQDSKDSTYSLSSTLTLSKADYEKHKVYACEVTHQGLSSPVTKSFNRGEC
notes: Heterodimerized; only the B3 chain altered; also called He Ab T335_04F
B2: GpH7-A5/GpH7-B3 variant (A330_01G)/GpL16-k0 (antibody, human IgG1, kappa)
heavy 1: not shown
heavy 2: not shown
light: B1 light
notes: Heterodimerized; only the B3 chain altered; also called He Ab A330_01G
B3: GpH7-A5/GpH7-B3 variant (A330_04F)/GpL16-k0 (antibody, human IgG1, kappa)
heavy 1: not shown
heavy 2: not shown
light: B1 light
notes: Heterodimerized; only the B3 chain altered; also called He Ab A330_04F
B4: GpH7-A5/GpH7-B3 variant (A330_10E)/GpL16-k0 (antibody, human IgG1, kappa)
heavy 1: not shown
heavy 2: not shown
light: B1 light
notes: Heterodimerized; only the B3 chain altered; also called He Ab A330_10E
B5: GpH7-A5/GpH7-B3 variant (A330_19Q)/GpL16-k0 (antibody, human IgG1, kappa)
heavy 1: not shown
heavy 2: not shown
light: B1 light
notes: Heterodimerized; only the B3 chain altered; also called He Ab A330_19Q
B6: GpH7-A5/GpH7-B3 variant (A330_20W)/GpL16-k0 (antibody, human IgG1, kappa)
heavy 1: not shown
heavy 2: not shown
light: B1 light
notes: Heterodimerized; only the B3 chain altered; also called He Ab A330_20W
B7: GpH7-A5/GpH7-B3 variant (D265_10E)/GpL16-k0 (antibody, human IgG1, kappa)
heavy 1: not shown
heavy 2: not shown
light: B1 light
notes: Heterodimerized; only the B3 chain altered; also called He Ab D265_10E
B8: GpH7-A5/GpH7-B3 variant (H268_01G)/GpL16-k0 (antibody, human IgG1, kappa)
heavy 1: not shown
heavy 2: not shown
light: B1 light
notes: Heterodimerized; only the B3 chain altered; also called He Ab H268_01G
B9: GpH7-A5/GpH7-B3 variant (H268_09D)/GpL16-k0 (antibody, human IgG1, kappa)
heavy 1: not shown
heavy 2: not shown
light: B1 light
notes: Heterodimerized; only the B3 chain altered; also called He Ab H268_09D
B10: GpH7-A5/GpH7-B3 variant (H268_10E)/GpL16-k0 (antibody, human IgG1, kappa)
heavy 1: not shown
heavy 2: not shown
light: B1 light
notes: Heterodimerized; only the B3 chain altered; also called He Ab H268_10E
B11: GpH7-A5/GpH7-B3 variant (H268_13S)/GpL16-k0 (antibody, human IgG1, kappa)
heavy 1: not shown
heavy 2: not shown
light: B1 light
notes: Heterodimerized; only the B3 chain altered; also called He Ab H268_13S
B12: GpH7-A5/GpH7-B3 variant (H268_18N)/GpL16-k0 (antibody, human IgG1, kappa)
heavy 1: not shown
heavy 2: not shown
light: B1 light
notes: Heterodimerized; only the B3 chain altered; also called He Ab H268_18N
B13: GpH7-A5/GpH7-B3 variant (I336_08L)/GpL16-k0 (antibody, human IgG1, kappa)
heavy 1: not shown
heavy 2: not shown
light: B1 light
notes: Heterodimerized; only the B3 chain altered; also called He Ab I336_08L
B14: GpH7-A5/GpH7-B3 variant (I336_09D)/GpL16-k0 (antibody, human IgG1, kappa)
heavy 1: not shown
heavy 2: not shown
light: B1 light
notes: Heterodimerized; only the B3 chain altered; also called He Ab I336_09D
B15: GpH7-A5/GpH7-B3 variant (I336_11K)/GpL16-k0 (antibody, human IgG1, kappa)
heavy 1: not shown
heavy 2: not shown
light: B1 light
notes: Heterodimerized; only the B3 chain altered; also called He Ab I336_11K
B16: GpH7-A5/GpH7-B3 variant (I336_12R)/GpL16-k0 (antibody, human IgG1, kappa)
heavy 1: not shown
heavy 2: not shown
light: B1 light
notes: Heterodimerized; only the B3 chain altered; also called He Ab I336_12R
B17: GpH7-A5/GpH7-B3 variant (I336_13S)/GpL16-k0 (antibody, human IgG1, kappa)
heavy 1: not shown
heavy 2: not shown
light: B1 light
notes: Heterodimerized; only the B3 chain altered; also called He Ab I336_13S
B18: GpH7-A5/GpH7-B3 variant (I336_14T)/GpL16-k0 (antibody, human IgG1, kappa)
heavy 1: not shown
heavy 2: not shown
light: B1 light
notes: Heterodimerized; only the B3 chain altered; also called He Ab I336_14T
B19: GpH7-A5/GpH7-B3 variant (S337_04F)/GpL16-k0 (antibody, human IgG1, kappa)
heavy 1: not shown
heavy 2: not shown
light: B1 light
notes: Heterodimerized; only the B3 chain altered; also called He Ab S337_04F
B20: GpH7-A5/GpH7-B3 variant (S337_06M)/GpL16-k0 (antibody, human IgG1, kappa)
heavy 1: not shown
heavy 2: not shown
light: B1 light
notes: Heterodimerized; only the B3 chain altered; also called He Ab S337_06M
B21: GpH7-A5/GpH7-B3 variant (S337_07I)/GpL16-k0 (antibody, human IgG1, kappa)
heavy 1: not shown
heavy 2: not shown
light: B1 light
notes: Heterodimerized; only the B3 chain altered; also called He Ab S337_07I
B22: GpH7-A5/GpH7-B3 variant (S337_08L)/GpL16-k0 (antibody, human IgG1, kappa)
heavy 1: not shown
heavy 2: not shown
light: B1 light
notes: Heterodimerized; only the B3 chain altered; also called He Ab S337_08L
B23: GpH7-A5/GpH7-B3 variant (S337_09D)/GpL16-k0 (antibody, human IgG1, kappa)
heavy 1: not shown
heavy 2: not shown
light: B1 light
notes: Heterodimerized; only the B3 chain altered; also called He Ab S337_09D
B24: GpH7-A5/GpH7-B3 variant (S337_10E)/GpL16-k0 (antibody, human IgG1, kappa)
heavy 1: not shown
heavy 2: not shown
light: B1 light
notes: Heterodimerized; only the B3 chain altered; also called He Ab S337_10E
B25: GpH7-A5/GpH7-B3 variant (S337_15Y)/GpL16-k0 (antibody, human IgG1, kappa)
heavy 1: not shown
heavy 2: not shown
light: B1 light
notes: Heterodimerized; only the B3 chain altered; also called He Ab S337_15Y
B26: GpH7-A5/GpH7-B3 variant (S337_19Q)/GpL16-k0 (antibody, human IgG1, kappa)
heavy 1: not shown
heavy 2: not shown
light: B1 light
notes: Heterodimerized; only the B3 chain altered; also called He Ab S337_19Q
B27: GpH7-A5/GpH7-B3 variant (S337_20W)/GpL16-k0 (antibody, human IgG1, kappa)
heavy 1: not shown
heavy 2: not shown
light: B1 light
notes: Heterodimerized; only the B3 chain altered; also called He Ab S337_20W
B28: GpH7-A5/GpH7-B3 variant (T335_05P)/GpL16-k0 (antibody, human IgG1, kappa)
heavy 1: not shown
heavy 2: not shown
light: B1 light
notes: Heterodimerized; only the B3 chain altered; also called He Ab T335_05P
B29: GpH7-A5/GpH7-B3 variant (T335_06M)/GpL16-k0 (antibody, human IgG1, kappa)
heavy 1: not shown
heavy 2: not shown
light: B1 light
notes: Heterodimerized; only the B3 chain altered; also called He Ab T335_06M

target: T1, FcγRIa extracellular domain with C-terminal His tag (human, UniProt P12314 16-292); assay: SPR (Biacore), captured antibody, FcγRIa analyte; relative to GpH7-A5/GpH7-B3/GpL16-k0 = 100
T1 construct: extracellular domain; Expressed in FreeStyle293 cells; used as analyte in Biacore; also called FcgRI; 1a; not shown: His tag at the C terminus
T1 sequence (P12314 16-292): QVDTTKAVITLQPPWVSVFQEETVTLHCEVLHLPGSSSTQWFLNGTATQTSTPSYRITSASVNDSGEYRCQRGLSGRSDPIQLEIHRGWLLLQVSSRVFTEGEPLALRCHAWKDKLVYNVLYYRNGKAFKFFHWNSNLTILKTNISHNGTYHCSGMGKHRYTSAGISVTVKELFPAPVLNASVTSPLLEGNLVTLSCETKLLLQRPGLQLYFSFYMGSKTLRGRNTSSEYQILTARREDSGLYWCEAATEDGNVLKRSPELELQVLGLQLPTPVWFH

First: B1
Second: B2
The He/Con_1a of the first is lower: 105 % of control for the first, 106 % of control for the second.

First: B3
Second: B4
The He/Con_1a of the first is lower: 106 % of control for the first, 107 % of control for the second.

Compared with B5, B6 is higher in He/Con_1a: 105 % of control for the first, 108 % of control for the second.

Going from B7 to B8, the He/Con_1a rises from 101 % of control to 107 % of control.

Going from B9 to B10, the He/Con_1a rises from 110 % of control to 111 % of control.

First: B11
Second: B12
The He/Con_1a of the first is higher: 109 % of control for the first, 108 % of control for the second.

Going from B13 to B14, the He/Con_1a falls from 107 % of control to 104 % of control.

Going from B15 to B16, the He/Con_1a falls from 105 % of control to 102 % of control.

Compared with B17, B18 is higher in He/Con_1a: 102 % of control for the first, 104 % of control for the second.

Compared with B19, B20 is higher in He/Con_1a: 106 % of control for the first, 107 % of control for the second.

B21 and B22 are the same in He/Con_1a: 105 % of control for the first, 105 % of control for the second.

B23 and B24 are the same in He/Con_1a: 106 % of control for the first, 106 % of control for the second.

Going from B25 to B26, the He/Con_1a rises from 104 % of control to 105 % of control.

Going from B27 to B28, the He/Con_1a rises from 105 % of control to 106 % of control.

B29 was tested, and the He/Con_1a was 107 % of control.
